To fix the notation:
B1: PCMTD2 (parent)
chain: FFIRTSDSFDKFDFCEPSFVTGNC
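Further: lentivirally expressed fusions sorted by FACS into six bins by GFP to DsRed ratio, PSI derived from sequencing read proportions per bin multiplied by bin number.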

Variants of B1 are the subject of this data set. Description: protein stability index of a GFP-peptide fusion (GPS, HEK-293T) (PSI 1-6); higher = more stable. Particulars: c terminus: a fixed tail appended.
As to FFIRTSDSFDKFDFCEPSFVTGEC [N23E], the protein stability index was 2.27.
Under FFIRTSDSFDKFDFCEPSFVTGPC [N23P] stands 1.39; under FFIRTSDSFDKFDFCEPSFVTGQC [N23Q], 3.51; under FFIRTSDSFDKFDFCEPSFVTGTC [N23T], 2.7.
Under FFIRTSDSFDKFDFCEPSFVTGLC [N23L] stands 3.54; under FFIRTSDSFDKFDFCEPSFVTGDC [N23D], 2.84.
Regarding FFIRTSDSFDKFDFCEPSFVTGKC [N23K], the protein stability index came to 1.75.
Under FFIRTSDSFDKFDFCEPSFVTGRC [N23R] stands 2.88.
Turning to FFIRTSDSFDKFDFCEPSFVTGHC [N23H], the protein stability index was determined as 2.16.
On to FFIRTSDSFDKFDFCEPSFVTGVC [N23V], for which the protein stability index was found to be 2.89.
With FFIRTSDSFDKFDFCEPSFVTGWC [N23W] the figure was 2.05.
Under FFIRTSDSFDKFDFCEPSFVTGCC [N23C] stands 3.73; under FFIRTSDSFDKFDFCEPSFVTGAC [N23A], 2.62; under FFIRTSDSFDKFDFCEPSFVTGGC [N23G], 4.12.
Under FFIRTSDSFDKFDFCEPSFVTGYC [N23Y] stands 1.61; under FFIRTSDSFDKFDFCEPSFVTGSC [N23S], 2.54; under FFIRTSDSFDKFDFCEPSFVTGIC [N23I], 2.13.
Regarding FFIRTSDSFDKFDFCEPSFVTGMC [N23M], the protein stability index turned out to be 1.83.
Under FFIRTSDSFDKFDFCEPSFVTRNC [G22R] stands 1.87.
Under FFIRTSDSFDKFDFCEPSFVTPNC [G22P] stands 3.09; under FFIRTSDSFDKFDFCEPSFVTQNC [G22Q], 2.74; under FFIRTSDSFDKFDFCEPSFVTCNC [G22C], 2.71.
With FFIRTSDSFDKFDFCEPSFVTKNC [G22K] the figure was 2.1; with FFIRTSDSFDKFDFCEPSFVTTNC [G22T], 2.24; with FFIRTSDSFDKFDFCEPSFVTMNC [G22M], 3.08.
With FFIRTSDSFDKFDFCEPSFVTSNC [G22S], the protein stability index is 2.07.
As to FFIRTSDSFDKFDFCEPSFVTWNC [G22W], the protein stability index worked out at 3.23.
With FFIRTSDSFDKFDFCEPSFVTNNC [G22N] the figure was 2.16.
With FFIRTSDSFDKFDFCEPSFVTINC [G22I] the figure was 2.8; with FFIRTSDSFDKFDFCEPSFVTLNC [G22L], 2.03.
Under FFIRTSDSFDKFDFCEPSFVTFNC [G22F] stands 1.68; under FFIRTSDSFDKFDFCEPSFVTANC [G22A], 2; under FFIRTSDSFDKFDFCEPSFVTENC [G22E], 2.16.
Consider FFIRTSDSFDKFDFCEPSFVTVNC [G22V], for which the protein stability index was 4.43.
In the case of FFIRTSDSFDKFDFCEPSFVTYNC [G22Y], the protein stability index amounted to 1.85.
Turning to FFIRTSDSFDKFDFCEPSFVTHNC [G22H], the protein stability index turned out to be 3.63.
Under FFIRTSDSFDKFDFCEPSFVKGNC [T21K] stands 2.3.
With FFIRTSDSFDKFDFCEPSFVNGNC [T21N] the figure was 2.27; with FFIRTSDSFDKFDFCEPSFVVGNC [T21V], 3.86.
With FFIRTSDSFDKFDFCEPSFVLGNC [T21L] the figure was 3.84.
In the case of FFIRTSDSFDKFDFCEPSFVDGNC [T21D], the protein stability index was found to be 1.71.
With FFIRTSDSFDKFDFCEPSFVSGNC [T21S] the figure was 2.18; with FFIRTSDSFDKFDFCEPSFVYGNC [T21Y], 2.49; with FFIRTSDSFDKFDFCEPSFVMGNC [T21M], 3.19.
Under FFIRTSDSFDKFDFCEPSFVIGNC [T21I] stands 2.9.
With FFIRTSDSFDKFDFCEPSFVGGNC [T21G] the figure was 3.28; with FFIRTSDSFDKFDFCEPSFVWGNC [T21W], 2.76; with FFIRTSDSFDKFDFCEPSFVPGNC [T21P], 3.61.
For the variant FFIRTSDSFDKFDFCEPSFVQGNC [T21Q], the protein stability index is 2.22.
Regarding FFIRTSDSFDKFDFCEPSFVFGNC [T21F], the protein stability index was 3.34.
With FFIRTSDSFDKFDFCEPSFVEGNC [T21E] the figure was 2.4; with FFIRTSDSFDKFDFCEPSFVHGNC [T21H], 1.47.
Under FFIRTSDSFDKFDFCEPSFVTGNP [C24P] stands 1.74.
Under FFIRTSDSFDKFDFCEPSFVTGNY [C24Y] stands 2.53.
On to FFIRTSDSFDKFDFCEPSFVTGNG [C24G], for which the protein stability index turned out to be 2.09.
With FFIRTSDSFDKFDFCEPSFVTGNH [C24H] the figure was 2.43; with FFIRTSDSFDKFDFCEPSFVTGNQ [C24Q], 2.85; with FFIRTSDSFDKFDFCEPSFVTGNK [C24K], 1.92.
With FFIRTSDSFDKFDFCEPSFVTGNM [C24M] the figure was 3.61; with FFIRTSDSFDKFDFCEPSFVTGNT [C24T], 2.24.
With FFIRTSDSFDKFDFCEPSFVTGNF [C24F] the figure was 3.29; with FFIRTSDSFDKFDFCEPSFVTGNE [C24E], 2.04; with FFIRTSDSFDKFDFCEPSFVTGNL [C24L], 2.66.
With FFIRTSDSFDKFDFCEPSFVTGNS [C24S], the protein stability index was determined as 2.78.
Turning to FFIRTSDSFDKFDFCEPSFVTGNR [C24R], the protein stability index was determined as 2.27.
With FFIRTSDSFDKFDFCEPSFVTGNA [C24A] the figure was 2.73; with FFIRTSDSFDKFDFCEPSFVTGNN [C24N], 1.47.
With FFIRTSDSFDKFDFCEPSFVTGND [C24D] the figure was 1.64.

The values above are taken from the supplement of paper PMC10567573.
